Measured values: the supplement of paper PMC9732359
± gives the uncertainty stated by the source.

Assay: protein stability index of a GFP-peptide fusion (yeast GPS) (PSI 1-4); higher = more stable; sorted into four equal gates, so the index is relative within each strain
Summary of the method: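 Tiled 17-residue yeast protein peptides were fused downstream of GFP in a plasmid that also expresses Cherry, and the pooled library was carried in yeast. Mid-log cultures in leucine-free medium were sorted into four equal gates by GFP/Cherry fluorescence ratio, and plasmids from each gate were PCR-amplified and Illumina-sequenced, with reads assigned to strains by barcodes. The protein stability index for each peptide was each gate's read frequency times its gate number, summed.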

Row | Sequence | protein stability index (doa10∆) | protein stability index (pdr5∆) | protein stability index (san1∆) | protein stability index (ubr1∆)
1 | SFKIFVDVLVISSHSHP [RRP42] | 1.21 ± 0.043 | 1.21 ± 0.047 | 1.19 ± 0.07 | 1.39 ± 0.032
2 | GSVLLTLLNFVSNNVLR [ECM29] | 1.43 ± 0.054 | 1.31 ± 0.059 | 1.67 ± 0.1 | 2.03 ± 0.073
3 | TDKVSLSQPVSASKHEY [SIR4] | 2.29 ± 0.079 | 2.53 ± 0.057 | 2.24 ± 0.082 | 1.95 ± 0.041
4 | DAKKARFWSFMKTQRFV [SIR4] | 2.6 ± 0.096 | 2.88 ± 0.069 | 2.67 ± 0.069 | 2.75 ± 0.066
5 | NMPNCDYLTLNKVVVNL [RPN2] | 2.99 ± 0.054 | 2.88 ± 0.061 | 2.58 ± 0.068 | 3.02 ± 0.051
6 | PYNLNLFPNELYNVMGI [RPC31] | 2.12 ± 0.061 | 2.52 ± 0.092 | 2.71 ± 0.086 | 2.38 ± 0.12
7 | SKSEFAHRIMLTNILRM [FAS2] | 1.62 ± 0.066 | 1.67 ± 0.068 | 1.46 ± 0.14 | 1.85 ± 0.081
8 | NQSAYEWNGKSFQKKSN [ISW2] | 3.16 ± 0.11 | 3.12 ± 0.17 | 3.09 ± 0.064 | 2.99 ± 0.13
9 | EWDLYPQGFSSVERGRK [REC8] | 3.41 ± 0.13 | 3.54 ± 0.14 | 3.44 ± 0.086 | 3.48 ± 0.12
10 | INDKRANLMLVMLRLLL [SRB4] | 1.6 ± 0.039 | 1.61 ± 0.047 | 1.97 ± 0.067 | 1.94 ± 0.04
11 | SKLSKNISFYKLHVNWN [SIN4] | 2.04 ± 0.076 | 1.79 ± 0.071 | 2.02 ± 0.11 | 2.04 ± 0.06
12 | KANIFQVIKNEVCAKMP [SSN2] | 2.7 ± 0.14 | 2.27 ± 0.084 | 1.4 ± 0.21 | 1.84 ± 0.09
13 | NESSTFLKLVLSESPVD [SIN4] | 2.1 ± 0.041 | 1.95 ± 0.052 | 2.05 ± 0.073 | 2.02 ± 0.046
14 | NIMVTIDGCVKIGDLGL [SSN3] | 3.27 ± 0.16 | 3.12 ± 0.14 | 3.5 ± 0.069 | 3.43 ± 0.052
15 | LDKFTDGGLFTLFVRDQ [QCR2] | 2.98 ± 0.093 | 3.14 ± 0.07 | 3.19 ± 0.055 | 3.31 ± 0.054
16 | HKISFSGTKSEVLTYVN [YJL039C/NUP192] | 2.65 ± 0.093 | 2.49 ± 0.082 | 2.39 ± 0.11 | 2.7 ± 0.087
17 | LLPNSKNVENTKNLSIL [DSN1] | 2.59 ± 0.1 | 2.5 ± 0.11 | 2.43 ± 0.12 | 2.83 ± 0.054
18 | QNNNTLGGGGLFGQSQQ [YGR119C/NUP57] | 3.43 ± 0.13 | 3.27 ± 0.29 | 3.18 ± 0.12 | 3.07 ± 0.087
19 | SLQEDVSFDFNGVPGQA [MED8] | 2.41 ± 0.06 | 2.97 ± 0.057 | 2.64 ± 0.086 | 3 ± 0.053
20 | LESISHAGTAIGIMASD [PRE9] | 1.45 ± 0.14 | 2.15 ± 0.1 | 2.06 ± 0.14 | 1.5 ± 0.13
21 | KERLTKEAAAVAEGKSK [RPL8A] | 3.53 ± 0.16 | 2.74 ± 0.22 | 3.31 ± 0.15 | 3.1 ± 0.16
22 | GIGSLTDLMSIVQELLD [RPC34] | 3.49 ± 0.17 | 2.91 ± 0.16 | 3.23 ± 0.13 | 3.17 ± 0.13
23 | VQASVTSSTHERKSKTY [RET1] | 2.6 ± 0.066 | 2.78 ± 0.079 | 2.55 ± 0.056 | 2.97 ± 0.061
24 | GKEVEVLMETKNTQSPQ [SNU114] | 3.19 ± 0.22 | 3.6 ± 0.095 |  | 3.44 ± 0.11
25 | SYFKNSVIVKFHSEPDR [LIN1] | 2.23 ± 0.062 | 2.59 ± 0.075 | 2.44 ± 0.067 | 2.77 ± 0.047
26 | LDTYLPEDLNSLYIYYL [SIR2] | 2.8 ± 0.068 | 2.45 ± 0.054 | 2.54 ± 0.053 | 2.63 ± 0.063

Row | Sequence | protein stability index (doa10∆) | protein stability index (pdr5∆) | protein stability index (san1∆) | protein stability index (ubr1∆)
27 | SKIFNESFPDDIPLAKA [CDC53] | 2.68 ± 0.056 | 2.89 ± 0.067 | 2.55 ± 0.049 | 2.82 ± 0.037
28 | TLLKKANRDDVKGRENE [RPC82] |  | 3.5 ± 0.23 |  | 3.15 ± 0.17
29 | FDQAGKKVSRRNARAAR [RPL13B] | 3.08 ± 0.091 | 3.01 ± 0.14 | 2.67 ± 0.28 | 3.29 ± 0.094
30 | GIFGMDFYVVMNRPGAR [RPL11A] | 1.8 ± 0.057 | 1.71 ± 0.064 | 2.49 ± 0.058 | 2.24 ± 0.047
31 | LLSDTFEVLAPKWERVF [RRI2] | 3.13 ± 0.11 | 2.48 ± 0.076 | 1.75 ± 0.091 | 2.93 ± 0.11
32 | HELGINIDSLKFNELVK [BRR2] | 2.89 ± 0.07 | 2.93 ± 0.058 | 3.08 ± 0.054 | 2.9 ± 0.06
33 | PAFSFGAKPEEKKDDNS [YJL041W/NSP1] | 3.27 ± 0.16 | 3.26 ± 0.13 | 2.98 ± 0.24 | 3.29 ± 0.13
34 | GAKPEEKKDDNSSKPAF [YJL041W/NSP1] | 3.29 ± 0.12 | 3.38 ± 0.14 | 2.87 ± 0.082 | 2.86 ± 0.078
35 | KRIKPNTEITQKSSKEN [ECM29] | 2.81 ± 0.081 | 2.9 ± 0.074 | 2.98 ± 0.067 | 3.14 ± 0.056
36 | QRGKWNLKYLDNSNVMT [RGR1] | 2.37 ± 0.093 | 2.49 ± 0.084 | 2.58 ± 0.077 | 1.95 ± 0.073
37 | PQMFLNQQAQARQQVAQ [GAL11] | 2.66 ± 0.15 | 2.46 ± 0.13 | 1.9 ± 0.27 | 1.7 ± 0.091
38 | TVVISQKKVPDKLLDPT [SCL1] | 2.85 ± 0.1 | 2.31 ± 0.085 | 3.23 ± 0.064 | 2.86 ± 0.068
39 | LSEWEEYLKGSESQLNS [YCS4] | 3.44 ± 0.13 | 3.65 ± 0.13 | 3.46 ± 0.12 | 3.49 ± 0.1
40 | HPGYDCWLSNIDIQTQD [RRI1] | 2.72 ± 0.099 | 3.14 ± 0.091 | 3.08 ± 0.062 | 3.16 ± 0.075
41 | RQQKLLEDQQRQQKLLL [SWI1] | 3.2 ± 0.12 | 3.05 ± 0.062 | 3.03 ± 0.077 | 3.25 ± 0.069
42 | DALLNSTTEHINIDDLL [YJL039C/NUP192] | 2.47 ± 0.24 | 2.73 ± 0.12 | 2.59 ± 0.092 | 3.17 ± 0.059
43 | RKKTPAGDWKYDRQLSS [FAS2] | 1.25 ± 0.066 | 2.43 ± 0.092 | 1.59 ± 0.19 | 1.32 ± 0.079
44 | IETVMTQEQFVKRRRDM [SRB4] | 2.94 ± 0.22 | 3.24 ± 0.12 | 2.92 ± 0.1 | 2.49 ± 0.26
45 | DVVAKLEAKRKVSSAEY [RPL16A] | 1.69 ± 0.11 | 1.7 ± 0.071 |  | 
46 | NESLIPLINLALIDTEF [YML103C/NUP188] | 2.51 ± 0.11 | 1.9 ± 0.088 | 1.32 ± 0.15 | 2.1 ± 0.12
47 | DLTFKLADILKANISLE [RPO21] | 2.49 ± 0.068 | 2.68 ± 0.087 | 2.46 ± 0.067 | 2.32 ± 0.047
48 | SCSFFAKLSDTLIIDQV [NUT1] | 2.22 ± 0.052 | 1.79 ± 0.051 | 2.06 ± 0.11 | 1.91 ± 0.039
49 | ILRNGIDYLQRNDKTLE [POP1] | 3.19 ± 0.058 | 3.01 ± 0.056 | 2.95 ± 0.054 | 2.88 ± 0.051
50 | MTTPQNISSSQQLLPAP [DSN1] | 2.82 ± 0.049 | 2.89 ± 0.04 | 2.74 ± 0.036 | 2.81 ± 0.038
51 | KTSKRTKRWYKNAGLGF [RPS11A] | 3.3 ± 0.091 | 2.84 ± 0.12 | 3.17 ± 0.11 | 3.4 ± 0.085
